# Laboratory results from patent publication US20040127421.
# Columns and labels:
# [1] = tested on: 10-mer (SEQ ID NO:13) NYNFFPRKPK
# [2] = tested on: 19-mer (SEQ ID NO:11) PRCGNPDVANYNFFPRKPK
# [3] = tested on: 9-mer (SEQ ID NO:12) PRCGNPDVA
# Active MMP-9 enzyme, sequence (chain, as listed by the source): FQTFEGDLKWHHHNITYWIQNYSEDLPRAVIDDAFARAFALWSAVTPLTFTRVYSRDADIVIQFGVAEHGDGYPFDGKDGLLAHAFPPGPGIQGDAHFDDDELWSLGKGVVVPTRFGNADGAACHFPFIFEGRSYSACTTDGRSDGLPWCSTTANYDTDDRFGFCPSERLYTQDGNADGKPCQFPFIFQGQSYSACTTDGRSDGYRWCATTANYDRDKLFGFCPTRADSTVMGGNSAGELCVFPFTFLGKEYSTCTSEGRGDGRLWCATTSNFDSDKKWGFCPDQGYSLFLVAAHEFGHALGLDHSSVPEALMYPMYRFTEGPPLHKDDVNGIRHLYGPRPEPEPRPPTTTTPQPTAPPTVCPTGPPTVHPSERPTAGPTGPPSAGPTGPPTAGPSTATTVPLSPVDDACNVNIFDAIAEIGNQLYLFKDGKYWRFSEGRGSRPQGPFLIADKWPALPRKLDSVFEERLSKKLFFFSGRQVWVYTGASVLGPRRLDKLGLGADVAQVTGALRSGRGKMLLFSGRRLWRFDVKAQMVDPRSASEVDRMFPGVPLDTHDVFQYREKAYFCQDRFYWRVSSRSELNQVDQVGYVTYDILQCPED
substance,measurement,setting,value
Active MMP-9 enzyme,extended time course of MMP-9 catalyzed hydrolysis of collagen,[1],The 10-mer is less effective at preventing the destruction of collagen at long time points (FIG. 9) than is the 9-mer (FIG. 10)
same,extended time course of MMP-9 catalyzed hydrolysis of collagen,[2],the 19-mer effectively inhibits the MMP-9 catalyzed hydrolysis of collagen to beyond 1000 minutes
same,extended time course of MMP-9 catalyzed hydrolysis of collagen,[3],The 10-mer is less effective at preventing the destruction of collagen at long time points (FIG. 9) than is the 9-mer (FIG. 10)
